Columns and labels:
[1] = test system: SEAP-APPwt fusion protein (secretory alkaline phosphatase fused to APP 581-695, no Swedish mutations)
[2] = test system: SEAP-APPsw fusion protein (secretory alkaline phosphatase fused to APP 581-695 with glutamic acid at position 17 of β-amyloid and Swedish mutations)
[3] = test system: BE11-hAPP695 with alanine at position 17 of β-amyloid
[4] = test system: BE11-hAPP695 with tryptophan at position 16 of β-amyloid
[5] = test system: BE11-hAPP695 with glutamic acid at position 17 of β-amyloid
BE11-hAPP695 with glutamic acid at position 17 of β-amyloid, sequence (chain, as listed by the source): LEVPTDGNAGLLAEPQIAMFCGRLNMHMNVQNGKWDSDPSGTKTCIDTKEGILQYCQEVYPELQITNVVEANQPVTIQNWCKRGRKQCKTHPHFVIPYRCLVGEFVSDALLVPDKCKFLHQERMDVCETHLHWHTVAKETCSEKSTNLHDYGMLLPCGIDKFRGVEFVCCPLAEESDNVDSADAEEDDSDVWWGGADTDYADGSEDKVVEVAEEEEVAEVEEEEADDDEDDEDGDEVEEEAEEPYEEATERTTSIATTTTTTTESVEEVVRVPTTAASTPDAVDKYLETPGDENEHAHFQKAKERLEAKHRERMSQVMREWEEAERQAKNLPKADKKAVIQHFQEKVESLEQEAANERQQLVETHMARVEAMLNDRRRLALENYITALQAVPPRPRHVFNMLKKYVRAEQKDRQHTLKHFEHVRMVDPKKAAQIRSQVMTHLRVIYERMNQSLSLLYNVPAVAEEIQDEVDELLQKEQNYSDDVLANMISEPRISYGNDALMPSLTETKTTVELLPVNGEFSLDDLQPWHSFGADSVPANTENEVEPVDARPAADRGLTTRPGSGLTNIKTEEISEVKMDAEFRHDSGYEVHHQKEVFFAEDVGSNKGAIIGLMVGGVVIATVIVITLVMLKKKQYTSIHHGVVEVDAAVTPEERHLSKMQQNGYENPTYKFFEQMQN

[6] = test system: BE11-hAPP695 with lysine at position 17 of β-amyloid
BE11-hAPP695 with lysine at position 17 of β-amyloid, sequence (chain, as listed by the source): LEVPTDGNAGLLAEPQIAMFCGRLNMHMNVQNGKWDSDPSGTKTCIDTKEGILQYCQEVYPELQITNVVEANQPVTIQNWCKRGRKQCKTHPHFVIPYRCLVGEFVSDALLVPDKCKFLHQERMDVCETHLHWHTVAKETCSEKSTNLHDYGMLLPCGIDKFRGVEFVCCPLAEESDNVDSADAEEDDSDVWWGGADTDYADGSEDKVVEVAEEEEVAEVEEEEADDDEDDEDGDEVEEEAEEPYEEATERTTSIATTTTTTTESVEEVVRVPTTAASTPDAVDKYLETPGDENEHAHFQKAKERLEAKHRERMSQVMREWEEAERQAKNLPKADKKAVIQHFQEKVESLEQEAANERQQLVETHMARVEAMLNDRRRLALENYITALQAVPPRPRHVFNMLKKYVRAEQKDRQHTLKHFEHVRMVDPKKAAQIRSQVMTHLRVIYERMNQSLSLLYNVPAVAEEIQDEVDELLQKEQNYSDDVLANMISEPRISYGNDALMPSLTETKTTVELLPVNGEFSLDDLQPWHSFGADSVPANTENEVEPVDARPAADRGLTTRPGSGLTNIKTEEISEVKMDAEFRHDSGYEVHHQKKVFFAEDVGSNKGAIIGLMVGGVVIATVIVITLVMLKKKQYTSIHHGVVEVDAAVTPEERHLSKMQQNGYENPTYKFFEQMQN

[7] = test system: BE11-hAPP695 with proline at position 17 of β-amyloid
BE11-hAPP695 with proline at position 17 of β-amyloid, sequence (chain, as listed by the source): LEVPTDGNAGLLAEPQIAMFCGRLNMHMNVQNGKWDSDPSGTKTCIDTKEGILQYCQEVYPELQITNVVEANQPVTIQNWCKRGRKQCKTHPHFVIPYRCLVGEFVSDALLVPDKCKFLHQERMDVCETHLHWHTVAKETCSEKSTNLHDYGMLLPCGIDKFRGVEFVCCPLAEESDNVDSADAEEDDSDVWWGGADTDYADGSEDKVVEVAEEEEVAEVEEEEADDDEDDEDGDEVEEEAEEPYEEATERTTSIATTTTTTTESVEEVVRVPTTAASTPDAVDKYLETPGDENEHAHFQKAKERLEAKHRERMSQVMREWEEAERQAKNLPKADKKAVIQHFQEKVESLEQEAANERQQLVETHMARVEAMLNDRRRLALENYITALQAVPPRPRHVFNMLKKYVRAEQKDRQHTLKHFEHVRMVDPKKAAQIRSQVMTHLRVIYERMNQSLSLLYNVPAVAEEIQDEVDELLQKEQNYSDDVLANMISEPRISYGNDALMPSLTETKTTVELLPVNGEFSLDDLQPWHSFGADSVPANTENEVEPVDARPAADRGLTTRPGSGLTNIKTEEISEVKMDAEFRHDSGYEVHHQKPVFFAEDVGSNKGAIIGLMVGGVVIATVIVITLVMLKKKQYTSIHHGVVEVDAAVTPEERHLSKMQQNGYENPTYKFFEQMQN

BE11-hAPP695 with alanine at position 17 of β-amyloid, sequence (chain, as listed by the source): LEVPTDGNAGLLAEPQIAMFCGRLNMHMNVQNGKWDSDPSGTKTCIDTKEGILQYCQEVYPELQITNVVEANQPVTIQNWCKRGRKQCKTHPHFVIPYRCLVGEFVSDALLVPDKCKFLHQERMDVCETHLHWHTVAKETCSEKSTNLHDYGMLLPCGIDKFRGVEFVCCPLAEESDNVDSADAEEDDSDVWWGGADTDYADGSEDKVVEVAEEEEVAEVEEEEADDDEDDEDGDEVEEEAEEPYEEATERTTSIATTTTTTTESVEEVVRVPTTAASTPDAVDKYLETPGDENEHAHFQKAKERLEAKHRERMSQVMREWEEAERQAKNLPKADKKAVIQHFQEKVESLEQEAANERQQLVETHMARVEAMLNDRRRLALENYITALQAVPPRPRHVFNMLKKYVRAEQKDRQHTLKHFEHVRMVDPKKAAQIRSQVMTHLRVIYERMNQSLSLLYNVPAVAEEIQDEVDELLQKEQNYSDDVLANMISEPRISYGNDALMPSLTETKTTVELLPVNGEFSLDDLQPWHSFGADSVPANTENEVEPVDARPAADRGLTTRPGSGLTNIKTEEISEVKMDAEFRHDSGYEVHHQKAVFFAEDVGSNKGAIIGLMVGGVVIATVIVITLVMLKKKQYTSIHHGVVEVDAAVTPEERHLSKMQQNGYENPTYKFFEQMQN
BE11-hAPP695 with tryptophan at position 16 of β-amyloid, sequence (chain, as listed by the source): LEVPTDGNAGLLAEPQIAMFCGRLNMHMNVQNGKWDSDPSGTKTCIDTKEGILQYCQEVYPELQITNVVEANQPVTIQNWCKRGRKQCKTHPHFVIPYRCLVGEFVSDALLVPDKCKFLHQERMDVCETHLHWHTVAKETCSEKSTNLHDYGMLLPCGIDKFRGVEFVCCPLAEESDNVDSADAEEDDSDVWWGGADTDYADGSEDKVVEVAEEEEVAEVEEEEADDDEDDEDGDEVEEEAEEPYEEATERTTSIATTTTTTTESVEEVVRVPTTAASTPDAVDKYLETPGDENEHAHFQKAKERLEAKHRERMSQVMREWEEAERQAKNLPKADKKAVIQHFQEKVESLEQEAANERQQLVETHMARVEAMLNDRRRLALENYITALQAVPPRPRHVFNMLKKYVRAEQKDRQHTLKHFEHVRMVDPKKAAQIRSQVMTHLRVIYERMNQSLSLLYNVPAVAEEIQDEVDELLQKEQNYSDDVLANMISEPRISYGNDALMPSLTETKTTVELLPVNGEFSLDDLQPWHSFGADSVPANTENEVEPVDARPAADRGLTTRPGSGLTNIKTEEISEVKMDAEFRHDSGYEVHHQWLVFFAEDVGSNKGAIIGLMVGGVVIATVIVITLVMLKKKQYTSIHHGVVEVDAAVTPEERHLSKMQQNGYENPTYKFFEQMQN

Substance: β-secretase (endogenous activity of the CHO-K1 cells of Example 2)
- β-secretase cleavage product in culture supernatant, Western blotting [1]: a β-secretase cleavage product was detected only in the fusion protein expression cell line (S)
- β-amyloid production [2]: produced 5 to 10 times as much β-amyloid
- β-secretase cleavage product in culture supernatant, Western blotting [2]: a β-secretase cleavage product was detected only in the fusion protein expression cell line (S)

Substance: α-secretase (endogenous activity of the CHO-K1 cells of Example 2)
- α-cleavage product in culture supernatant, Western blotting [1]: no α-cleavage product was detected in any culture supernatant
- α-cleavage product in culture supernatant, Western blotting [2]: no α-cleavage product was detected in any culture supernatant

Substance: β-secretase (endogenous activity of the COS7 cells of Example 1)
- β-cleavage: amount of β-secretase cleavage product (sAPPβ) in culture supernatant, Western blotting [3]: →
- β-cleavage: amount of β-secretase cleavage product (sAPPβ) in culture supernatant, Western blotting [4]: →
- β-cleavage: amount of β-secretase cleavage product (sAPPβ) in culture supernatant, Western blotting [5]: →
- β-cleavage: amount of β-secretase cleavage product (sAPPβ) in culture supernatant, Western blotting [6]: ↑
- β-cleavage: amount of β-secretase cleavage product (sAPPβ) in culture supernatant, Western blotting [7]: →

Substance: α-secretase (endogenous activity of the COS7 cells of Example 1)
- α-cleavage: amount of α-secretase cleavage product (sAPPα) in culture supernatant, Western blotting [3]: ↓
- α-cleavage: amount of α-secretase cleavage product (sAPPα) in culture supernatant, Western blotting [4]: ↓↓
- α-cleavage: amount of α-secretase cleavage product (sAPPα) in culture supernatant, Western blotting [5]: 0
- α-cleavage: amount of α-secretase cleavage product (sAPPα) in culture supernatant, Western blotting [6]: ↓↓
- α-cleavage: amount of α-secretase cleavage product (sAPPα) in culture supernatant, Western blotting [7]: 0
